Literature values in publication PMC12990809.

Key:
Assay in all cases: pulldown
Details in all cases: 20 nM protein, 1.5 uM RNA pool; 20 mM HEPES pH 7.8, 70 mM KCl, 10 mM NaCl, 10% glycerol, 2 mM DTT, 0.1 ug/uL BSA; 30 min, 4 C (protocol of this paper; not …); cited from earlier work
[1] = target: T1, sm (Drosophila melanogaster) (UniProt A4UZQ5)
T1 sequence: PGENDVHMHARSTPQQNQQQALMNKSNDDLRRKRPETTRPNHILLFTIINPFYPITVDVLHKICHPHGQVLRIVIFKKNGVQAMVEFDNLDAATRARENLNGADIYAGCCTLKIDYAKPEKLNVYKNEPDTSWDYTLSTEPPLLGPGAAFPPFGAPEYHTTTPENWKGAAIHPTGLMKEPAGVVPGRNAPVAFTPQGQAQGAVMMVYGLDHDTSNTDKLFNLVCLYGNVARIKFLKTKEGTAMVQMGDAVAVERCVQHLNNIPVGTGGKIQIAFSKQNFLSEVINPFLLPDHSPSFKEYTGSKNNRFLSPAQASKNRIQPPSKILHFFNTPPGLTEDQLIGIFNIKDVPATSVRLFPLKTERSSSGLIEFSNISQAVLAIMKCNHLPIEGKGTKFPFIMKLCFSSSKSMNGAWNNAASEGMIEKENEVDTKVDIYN

[2] = target: unc-75 (Caenorhabditis elegans) (UniProt G5EE68)
[3] = target: T2, Cnot4 (Drosophila melanogaster) (UniProt M9MRH8)
T2 sequence: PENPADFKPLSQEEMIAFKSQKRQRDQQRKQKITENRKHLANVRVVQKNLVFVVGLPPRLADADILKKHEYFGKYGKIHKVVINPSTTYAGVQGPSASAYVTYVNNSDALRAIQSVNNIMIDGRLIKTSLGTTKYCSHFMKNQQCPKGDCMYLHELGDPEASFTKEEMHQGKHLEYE

[4] = target: YBX2 (Homo sapiens) (UniProt Q9Y2T7)
Sequence of YBX2 (Homo sapiens) (Q9Y2T7 whole entry): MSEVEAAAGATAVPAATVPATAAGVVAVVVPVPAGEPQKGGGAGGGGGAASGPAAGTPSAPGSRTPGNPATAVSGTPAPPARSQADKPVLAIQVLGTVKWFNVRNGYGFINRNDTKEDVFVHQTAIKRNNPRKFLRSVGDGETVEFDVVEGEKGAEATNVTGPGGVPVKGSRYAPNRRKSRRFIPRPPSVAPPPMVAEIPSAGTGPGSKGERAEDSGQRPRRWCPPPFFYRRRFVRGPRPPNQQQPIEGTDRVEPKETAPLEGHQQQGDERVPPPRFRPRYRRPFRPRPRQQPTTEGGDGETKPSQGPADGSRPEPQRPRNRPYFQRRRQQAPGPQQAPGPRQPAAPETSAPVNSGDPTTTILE

[5] = target: SNRPA (Homo sapiens) (UniProt P09012)
Sequence of SNRPA (Homo sapiens) (P09012 whole entry): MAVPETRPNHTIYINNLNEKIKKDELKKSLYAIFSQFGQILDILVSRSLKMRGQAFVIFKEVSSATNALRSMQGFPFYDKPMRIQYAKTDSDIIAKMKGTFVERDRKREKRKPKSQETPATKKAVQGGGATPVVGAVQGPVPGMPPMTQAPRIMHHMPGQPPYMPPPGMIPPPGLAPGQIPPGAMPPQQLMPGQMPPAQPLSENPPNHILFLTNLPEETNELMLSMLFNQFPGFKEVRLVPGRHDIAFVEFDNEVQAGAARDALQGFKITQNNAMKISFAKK

[6] = target: T3, msi (Drosophila melanogaster) (UniProt H9ZJL0)
T3 sequence: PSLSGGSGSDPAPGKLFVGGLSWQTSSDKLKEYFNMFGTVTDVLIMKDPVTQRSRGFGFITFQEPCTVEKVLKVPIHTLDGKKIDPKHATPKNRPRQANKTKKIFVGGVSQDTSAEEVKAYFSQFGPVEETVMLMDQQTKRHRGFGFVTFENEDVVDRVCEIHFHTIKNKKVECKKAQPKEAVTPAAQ

[7] = target: ZCRB1 (Homo sapiens) (UniProt Q8TBF4)
Sequence of ZCRB1 (Homo sapiens) (Q8TBF4 1-132): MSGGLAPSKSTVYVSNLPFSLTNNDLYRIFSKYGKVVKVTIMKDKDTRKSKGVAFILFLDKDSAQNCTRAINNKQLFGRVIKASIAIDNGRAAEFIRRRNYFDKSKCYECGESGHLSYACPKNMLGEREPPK

[8] = target: YBX1 (Homo sapiens) (UniProt P67809)
Sequence of YBX1 (Homo sapiens) (P67809 whole entry): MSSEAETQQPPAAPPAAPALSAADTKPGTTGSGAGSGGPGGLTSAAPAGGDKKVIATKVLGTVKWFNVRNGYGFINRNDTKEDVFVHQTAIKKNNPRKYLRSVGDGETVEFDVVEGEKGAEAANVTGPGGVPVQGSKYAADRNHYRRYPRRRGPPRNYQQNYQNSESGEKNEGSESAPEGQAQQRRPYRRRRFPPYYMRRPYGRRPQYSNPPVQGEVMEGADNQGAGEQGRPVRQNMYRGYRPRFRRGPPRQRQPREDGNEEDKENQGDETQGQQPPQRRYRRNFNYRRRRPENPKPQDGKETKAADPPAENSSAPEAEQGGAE

[9] = target: TARDBP (Homo sapiens) (UniProt Q13148)
Sequence of TARDBP (Homo sapiens) (Q13148 56-315): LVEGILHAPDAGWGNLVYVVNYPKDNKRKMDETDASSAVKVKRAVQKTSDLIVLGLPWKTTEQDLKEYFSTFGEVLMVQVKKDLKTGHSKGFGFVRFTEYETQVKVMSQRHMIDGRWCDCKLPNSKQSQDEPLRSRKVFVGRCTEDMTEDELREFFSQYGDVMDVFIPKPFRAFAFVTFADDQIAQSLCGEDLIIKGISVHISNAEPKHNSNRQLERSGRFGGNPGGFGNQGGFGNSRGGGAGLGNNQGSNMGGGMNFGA

[10] = target: T4, mxt (Drosophila melanogaster) (UniProt Q9VR35)
T4 sequence: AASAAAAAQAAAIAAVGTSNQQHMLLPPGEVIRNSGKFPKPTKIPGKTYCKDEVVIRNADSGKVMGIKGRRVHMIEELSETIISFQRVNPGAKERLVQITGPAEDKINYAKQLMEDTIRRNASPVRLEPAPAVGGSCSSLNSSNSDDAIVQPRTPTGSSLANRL

[11] = target: T5, TIA1 (Homo sapiens) (UniProt P31483)
T5 sequence: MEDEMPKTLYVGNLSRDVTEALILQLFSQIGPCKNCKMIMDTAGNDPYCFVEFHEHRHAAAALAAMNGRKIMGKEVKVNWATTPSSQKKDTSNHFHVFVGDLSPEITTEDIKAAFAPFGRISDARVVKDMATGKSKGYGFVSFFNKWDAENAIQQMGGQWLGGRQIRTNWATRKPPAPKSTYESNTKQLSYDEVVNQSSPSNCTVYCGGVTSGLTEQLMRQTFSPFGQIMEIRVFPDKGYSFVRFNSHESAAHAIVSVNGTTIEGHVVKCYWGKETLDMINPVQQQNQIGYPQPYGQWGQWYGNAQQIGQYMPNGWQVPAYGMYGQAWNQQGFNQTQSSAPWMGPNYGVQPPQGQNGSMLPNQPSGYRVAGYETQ

[12] = target: T6, VTS1 S437M (Saccharomyces cerevisiae) (UniProt Q08831)
T6 sequence: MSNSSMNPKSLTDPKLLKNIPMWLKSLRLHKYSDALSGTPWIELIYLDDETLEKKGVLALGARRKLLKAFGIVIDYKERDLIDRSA

[13] = target: SNRNP70 (Homo sapiens) (UniProt P08621)
Sequence of SNRNP70 (Homo sapiens) (P08621 55-225): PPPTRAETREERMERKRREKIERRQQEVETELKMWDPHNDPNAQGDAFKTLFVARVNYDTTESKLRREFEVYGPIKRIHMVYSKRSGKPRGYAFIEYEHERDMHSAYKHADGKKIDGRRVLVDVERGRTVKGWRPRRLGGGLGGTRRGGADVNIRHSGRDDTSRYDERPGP

[14] = target: fne (Drosophila melanogaster) (UniProt Q7KIS3)
Sequence of fne (Drosophila melanogaster) (Q7KIS3 entry or part of it): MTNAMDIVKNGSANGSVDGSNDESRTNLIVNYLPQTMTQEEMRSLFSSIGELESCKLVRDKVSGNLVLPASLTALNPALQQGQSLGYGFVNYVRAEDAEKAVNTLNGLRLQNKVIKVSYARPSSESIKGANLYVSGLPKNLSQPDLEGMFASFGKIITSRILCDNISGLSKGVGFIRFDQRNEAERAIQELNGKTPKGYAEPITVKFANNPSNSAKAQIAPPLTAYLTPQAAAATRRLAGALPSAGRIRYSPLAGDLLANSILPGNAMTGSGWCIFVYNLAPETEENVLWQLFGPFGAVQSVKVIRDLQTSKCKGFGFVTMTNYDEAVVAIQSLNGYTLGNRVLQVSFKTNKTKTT

[15] = target: T7, ZC3H10 (Homo sapiens) (UniProt Q96K80)
T7 sequence: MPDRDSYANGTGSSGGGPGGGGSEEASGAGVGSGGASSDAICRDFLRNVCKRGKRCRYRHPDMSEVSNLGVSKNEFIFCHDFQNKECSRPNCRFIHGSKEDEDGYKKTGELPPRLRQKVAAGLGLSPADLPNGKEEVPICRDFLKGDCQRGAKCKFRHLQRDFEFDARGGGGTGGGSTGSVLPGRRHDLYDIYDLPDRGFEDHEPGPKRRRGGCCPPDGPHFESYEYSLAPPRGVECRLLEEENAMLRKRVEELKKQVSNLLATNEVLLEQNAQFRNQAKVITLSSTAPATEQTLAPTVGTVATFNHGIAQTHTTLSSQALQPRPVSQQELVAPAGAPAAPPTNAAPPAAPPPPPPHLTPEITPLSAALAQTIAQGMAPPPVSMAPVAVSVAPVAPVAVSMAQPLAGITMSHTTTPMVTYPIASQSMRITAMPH

[16] = target: T8, bru-3 (Drosophila melanogaster) (UniProt Q7K305)
T8 sequence: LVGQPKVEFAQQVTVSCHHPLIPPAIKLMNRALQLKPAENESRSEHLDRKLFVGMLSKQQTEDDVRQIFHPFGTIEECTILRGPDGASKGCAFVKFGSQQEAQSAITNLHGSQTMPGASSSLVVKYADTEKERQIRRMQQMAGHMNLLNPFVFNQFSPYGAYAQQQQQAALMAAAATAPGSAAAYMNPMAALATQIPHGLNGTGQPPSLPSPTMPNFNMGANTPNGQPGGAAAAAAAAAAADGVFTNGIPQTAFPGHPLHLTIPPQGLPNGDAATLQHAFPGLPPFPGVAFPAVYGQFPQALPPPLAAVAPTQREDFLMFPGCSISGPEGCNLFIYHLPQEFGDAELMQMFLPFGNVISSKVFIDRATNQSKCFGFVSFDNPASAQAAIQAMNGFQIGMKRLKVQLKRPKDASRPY

[17] = target: SRSF1 (Homo sapiens) (UniProt Q07955)
Sequence of SRSF1 (Homo sapiens) (Q07955 1-202): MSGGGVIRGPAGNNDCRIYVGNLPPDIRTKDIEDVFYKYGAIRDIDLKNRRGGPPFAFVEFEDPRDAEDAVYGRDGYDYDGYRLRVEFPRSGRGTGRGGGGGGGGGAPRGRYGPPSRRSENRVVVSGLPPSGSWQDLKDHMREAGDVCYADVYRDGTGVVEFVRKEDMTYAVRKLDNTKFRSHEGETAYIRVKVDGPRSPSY

[18] = target: T9, A2bp1 (Drosophila melanogaster) (UniProt Q9VT99)
T9 sequence: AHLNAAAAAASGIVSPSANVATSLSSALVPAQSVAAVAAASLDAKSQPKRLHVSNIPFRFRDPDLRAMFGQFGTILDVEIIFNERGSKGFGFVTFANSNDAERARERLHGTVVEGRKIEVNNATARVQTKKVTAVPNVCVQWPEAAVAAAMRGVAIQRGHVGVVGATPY

[19] = target: T10, SRSF7 (Homo sapiens) (UniProt Q16629)
T10 sequence: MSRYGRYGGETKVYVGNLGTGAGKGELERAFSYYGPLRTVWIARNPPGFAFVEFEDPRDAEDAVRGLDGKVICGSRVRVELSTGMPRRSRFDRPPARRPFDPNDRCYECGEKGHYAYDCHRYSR

[20] = target: U2AF2 (Homo sapiens) (UniProt P26368)
Sequence of U2AF2 (Homo sapiens) (P26368 101-475): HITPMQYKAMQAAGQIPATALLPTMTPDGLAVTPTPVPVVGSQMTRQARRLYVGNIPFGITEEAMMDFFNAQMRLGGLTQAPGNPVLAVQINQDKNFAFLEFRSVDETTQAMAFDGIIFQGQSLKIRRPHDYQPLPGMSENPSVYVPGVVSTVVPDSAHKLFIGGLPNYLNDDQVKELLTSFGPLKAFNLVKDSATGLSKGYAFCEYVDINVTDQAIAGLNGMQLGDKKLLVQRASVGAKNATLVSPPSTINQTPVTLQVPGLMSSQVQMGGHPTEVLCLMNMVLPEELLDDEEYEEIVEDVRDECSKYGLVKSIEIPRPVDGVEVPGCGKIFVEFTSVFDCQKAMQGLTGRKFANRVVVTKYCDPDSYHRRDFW

[21] = target: T11, elav (Drosophila melanogaster) (UniProt P16914)
T11 sequence: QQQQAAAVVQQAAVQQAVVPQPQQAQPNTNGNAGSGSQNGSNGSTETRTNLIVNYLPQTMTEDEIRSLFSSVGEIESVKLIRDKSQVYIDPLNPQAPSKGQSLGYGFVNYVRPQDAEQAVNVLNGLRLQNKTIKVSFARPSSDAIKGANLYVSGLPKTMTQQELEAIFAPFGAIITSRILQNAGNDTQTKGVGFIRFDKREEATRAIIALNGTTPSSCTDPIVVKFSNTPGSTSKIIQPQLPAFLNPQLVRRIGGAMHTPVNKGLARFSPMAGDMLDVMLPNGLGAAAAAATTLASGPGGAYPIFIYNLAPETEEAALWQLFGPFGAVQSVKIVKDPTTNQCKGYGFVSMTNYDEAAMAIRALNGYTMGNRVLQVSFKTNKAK

[22] = target: T12, Sxl (Drosophila melanogaster) (UniProt P19339)
T12 sequence: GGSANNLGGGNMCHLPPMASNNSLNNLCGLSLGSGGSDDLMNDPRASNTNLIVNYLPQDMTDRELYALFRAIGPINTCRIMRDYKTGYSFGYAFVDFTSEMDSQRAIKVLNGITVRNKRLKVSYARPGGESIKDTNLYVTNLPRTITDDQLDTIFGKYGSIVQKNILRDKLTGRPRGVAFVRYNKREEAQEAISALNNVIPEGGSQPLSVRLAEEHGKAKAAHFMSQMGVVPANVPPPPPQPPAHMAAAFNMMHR

[23] = target: T13, tra2 (Drosophila melanogaster) (UniProt P19018)
T13 sequence: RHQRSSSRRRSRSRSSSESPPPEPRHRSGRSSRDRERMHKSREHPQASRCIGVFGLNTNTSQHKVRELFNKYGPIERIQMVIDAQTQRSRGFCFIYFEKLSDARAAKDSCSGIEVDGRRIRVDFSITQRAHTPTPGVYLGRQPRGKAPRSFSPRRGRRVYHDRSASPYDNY

[24] = target: T14, orb2 (Drosophila melanogaster) (UniProt Q9VSR3)
T14 sequence: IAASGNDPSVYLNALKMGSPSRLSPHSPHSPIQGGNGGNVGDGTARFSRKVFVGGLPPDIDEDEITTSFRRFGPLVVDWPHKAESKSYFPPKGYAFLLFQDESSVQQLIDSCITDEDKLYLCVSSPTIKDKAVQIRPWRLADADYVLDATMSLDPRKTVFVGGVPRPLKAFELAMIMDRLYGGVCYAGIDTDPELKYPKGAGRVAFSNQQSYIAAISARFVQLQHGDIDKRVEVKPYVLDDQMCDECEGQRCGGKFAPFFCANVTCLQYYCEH

[25] = target: Hrb98DE (Drosophila melanogaster) (UniProt P07909)
Sequence of Hrb98DE (Drosophila melanogaster) (P07909 whole entry): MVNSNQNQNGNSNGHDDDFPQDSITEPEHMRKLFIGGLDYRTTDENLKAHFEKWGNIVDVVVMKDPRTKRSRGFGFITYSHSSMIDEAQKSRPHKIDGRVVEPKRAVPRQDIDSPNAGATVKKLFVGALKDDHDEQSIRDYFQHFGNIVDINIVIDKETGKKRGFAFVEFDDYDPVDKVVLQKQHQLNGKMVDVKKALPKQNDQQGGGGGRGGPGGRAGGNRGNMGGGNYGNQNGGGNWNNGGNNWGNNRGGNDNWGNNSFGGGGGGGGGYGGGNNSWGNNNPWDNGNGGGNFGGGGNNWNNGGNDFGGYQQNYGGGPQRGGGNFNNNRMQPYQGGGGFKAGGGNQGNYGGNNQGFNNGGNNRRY

[26] = target: T15, how (Drosophila melanogaster) (UniProt O01367)
T15 sequence: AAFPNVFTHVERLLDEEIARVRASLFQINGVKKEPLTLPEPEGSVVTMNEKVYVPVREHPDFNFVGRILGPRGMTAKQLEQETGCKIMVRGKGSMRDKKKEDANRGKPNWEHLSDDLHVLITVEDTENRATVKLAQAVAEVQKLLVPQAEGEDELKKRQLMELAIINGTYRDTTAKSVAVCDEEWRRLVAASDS

[27] = target: U2af50 (Drosophila melanogaster) (UniProt Q24562)
Sequence of U2af50 (Drosophila melanogaster) (Q24562 45-416): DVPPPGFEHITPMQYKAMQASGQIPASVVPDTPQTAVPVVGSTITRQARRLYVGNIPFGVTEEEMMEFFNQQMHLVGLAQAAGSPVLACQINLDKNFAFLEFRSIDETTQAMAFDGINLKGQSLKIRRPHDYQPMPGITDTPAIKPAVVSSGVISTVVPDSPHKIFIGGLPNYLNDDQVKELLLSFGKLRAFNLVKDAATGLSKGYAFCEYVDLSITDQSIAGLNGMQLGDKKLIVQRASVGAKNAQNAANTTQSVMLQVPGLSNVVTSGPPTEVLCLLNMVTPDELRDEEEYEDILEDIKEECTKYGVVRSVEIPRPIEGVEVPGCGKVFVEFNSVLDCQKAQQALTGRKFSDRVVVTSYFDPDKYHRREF

AGACAC [RNAcompete motif RNCMPT00069]
binding signal (z-score (mean of top ten 7-mers)) [1]: 11.2

UGUUGUG [RNAcompete motif RNCMPT00081]
binding signal (z-score (mean of top ten 7-mers)) [2]: 10.4

AGACACA [RNAcompete motif RNCMPT00008]
binding signal (z-score (mean of top ten 7-mers)) [3]: 12.4

AACANC [RNAcompete motif RNCMPT00084]
binding signal (z-score (mean of top ten 7-mers)) [4]: 9.95

UUGCACA [RNAcompete motif RNCMPT00071]
binding signal (z-score (mean of top ten 7-mers)) [5]: 10.9

GUAGUU [RNAcompete motif RNCMPT00099]
binding signal (z-score (mean of top ten 7-mers)) [6]: 11.6

GAAUUAAG [RNAcompete motif RNCMPT00087]
binding signal (z-score (mean of top ten 7-mers)) [7]: 12

AACAUC [RNAcompete motif RNCMPT00083]
binding signal (z-score (mean of top ten 7-mers)) [8]: 14.5

GAAUGA [RNAcompete motif RNCMPT00076]
binding signal (z-score (mean of top ten 7-mers)) [9]: 9.33

CAACGA [RNAcompete motif RNCMPT00007]
binding signal (z-score (mean of top ten 7-mers)) [10]: 13.9

UUUUUU [RNAcompete motif RNCMPT00165]
binding signal (z-score (mean of top ten 7-mers)) [11]: 9.41

GCUGGCC [RNAcompete motif RNCMPT00111]
binding signal (z-score (mean of top ten 7-mers)) [12]: 24.3

AUCAAG [RNAcompete motif RNCMPT00070]
binding signal (z-score (mean of top ten 7-mers)) [13]: 8.16

UUUUUUU [RNAcompete motif RNCMPT00120]
binding signal (z-score (mean of top ten 7-mers)) [14]: 12.7

GCAGCGCG [RNAcompete motif RNCMPT00085]
binding signal (z-score (mean of top ten 7-mers)) [15]: 16.6

GUGUUGU [RNAcompete motif RNCMPT00122]
binding signal (z-score (mean of top ten 7-mers)) [16]: 20.4

GAGGAGC [RNAcompete motif RNCMPT00163]
binding signal (z-score (mean of top ten 7-mers)) [17]: 11.3

UGCAUG [RNAcompete motif RNCMPT00123]
binding signal (z-score (mean of top ten 7-mers)) [18]: 21.3

GACGACG [RNAcompete motif RNCMPT00073]
binding signal (z-score (mean of top ten 7-mers)) [19]: 11.3

UUUUUCC [RNAcompete motif RNCMPT00079]
binding signal (z-score (mean of top ten 7-mers)) [20]: 17

UUUUUUU [RNAcompete motif RNCMPT00121]
binding signal (z-score (mean of top ten 7-mers)) [21]: 17.2

UUUUUUU [RNAcompete motif RNCMPT00119]
binding signal (z-score (mean of top ten 7-mers)) [22]: 17.2

AGAAGA [RNAcompete motif RNCMPT00078]
binding signal (z-score (mean of top ten 7-mers)) [23]: 7.09

UUUUUUG [RNAcompete motif RNCMPT00126]
binding signal (z-score (mean of top ten 7-mers)) [24]: 15.9

GGUAGGG [RNAcompete motif RNCMPT00096]
binding signal (z-score (mean of top ten 7-mers)) [25]: 21.8

ACUAAC [RNAcompete motif RNCMPT00118]
binding signal (z-score (mean of top ten 7-mers)) [26]: 25.4

UUUUUCC [RNAcompete motif RNCMPT00080]
binding signal (z-score (mean of top ten 7-mers)) [27]: 12.8
